From US20100125055A1 (Dana-Farber, published 2010)
Where no end group is shown, it is not given here.

B1: His-tagged MUC1 cytoplasmic domain (other)
chain: CQCRRKNYGQLDIFPARDTYHPMSEYPTYHTHGRYVPPSSTDRSPYEKVSAGNGGSSLSYTNPAVAATSANL
notes: Purified recombinant protein; It forms oligomers; also called His-MUC1-CD; His-tagged MUC1-CD; not shown: His tag
B2: MUC1/CQC peptide (peptide)
peptide: CQCRRKNYGQLDIFP
modifications: cysteine pairing not given here; also: poly-D-Arg transduction domain, length and attachment end not given here
notes: Synthetic peptide (MIT Biopolymer Laboratory); also called CQC long (15-mer); not shown: The poly-D-Arg cell transduction domain

Columns and labels:
[1] = biological target: the molecule itself; experiment: self-association of purified His-MUC1-CD (1.5 mg/ml); non-reducing SDS-polyacrylamide gel, immunoblot with anti-MUC1-C; incubated 1 h with PBS, 200 uM MUC1/CQC or 200 uM MUC1/AQA
Protocol: (§1) Schematic representation of the MUC1-C subunit and the 72-amino acid sequence of MUC1-CD are shown. The N-terminal 15 amino acids (shaded sequence) MUC1/CQC and mutated MUC1/AQA peptides were synthesized with the poly-dArg transduction domain. (FIG. 1B) His-MUC1-CD (1.4 mg/ml) was immobilized on a sensor chip in a BIAcore. MUC1/CQC was injected over the chip at 10 μM. Raw binding data were analyzed by BIAevaluation software version 3.0 and fit to a 1:1 Languir binding model. (FIG. 1C) Purified His-MUC1-CD (1.5 mg/ml) was incubated with PBS, 200 μM MUC1/CQC or 200 μM MUC1/AQA for 1 h at room temperature. The proteins were separated in a non-reducing SDS-polyacrylamide gel and analyzed by immunoblotting with anti-MUC1-C. (FIG. 1D) 293 cells were transiently transfected to express an empty vector or GFP-MUC1-CD and Flag-MUC1-CD. At 48 h after transfection, the cells were treated with 5 μM MUC1/CQC or MUC1/AQA for 3 d. The cells were then harvested for immunoblotting with anti-MUC1-C (left panel). Whole cell lysates were also precipitated with anti-Flag and the precipitates were immunoblotted with the indicated antibodies (right panels).

[2] = biological target: B1; experiment: BIAcore (SPR), His-MUC1-CD immobilized, peptide injected at 10 uM, 1:1 Langmuir fit
Protocol: as §1, with “The” for “Schematic representation of the MUC1-C subunit and the 72-amino acid sequence of MUC1-CD are shown. The”
Effects of the MUC1/CQC peptide on MUC1 oligomer formation. The MUC1 cytoplasmic domain (MUC1-CD) contains a CQC motif that is necessary for the formation of oligomers and nuclear localization (Leng et al., 2007). […] Purified His-tagged MUC1-CD forms oligomers as detected by electrophoresis in polyacrylamide gels (FIG. 1C).

| Kd [2] [nM] | Binder | binding result [1] |
| --- | --- | --- |
|  | B1 | binds |
| 30 | B2 |  |
